Residue numbers refer to the chain shown, from its start.
Key:
Assay in all cases: SEC; two proteins co-produced in insect cells, both Strep-tagged; StrepTactin capture, then SEC on Superdex S200 in 10 mM TRIS-HCl pH 8.0, 300 mM NaCl, 2 mM DTT; co-purification of wt and variant complexes
Conditions in all cases: both partners purified
Snu114^72-1008 S190A = target: T1, Snu114^72-1008 S190A (yeast, UniProt P36048 72-1008, S190A)
T1 construct: Insoluble when produced alone; also called Snu114^S190A; source: insect cells, co-produced with Prp8^SBR; complex purified; not shown: Strep tag (from the vector pIDS-C-Strep), C-terminal, kept
T1 sequence (looked up): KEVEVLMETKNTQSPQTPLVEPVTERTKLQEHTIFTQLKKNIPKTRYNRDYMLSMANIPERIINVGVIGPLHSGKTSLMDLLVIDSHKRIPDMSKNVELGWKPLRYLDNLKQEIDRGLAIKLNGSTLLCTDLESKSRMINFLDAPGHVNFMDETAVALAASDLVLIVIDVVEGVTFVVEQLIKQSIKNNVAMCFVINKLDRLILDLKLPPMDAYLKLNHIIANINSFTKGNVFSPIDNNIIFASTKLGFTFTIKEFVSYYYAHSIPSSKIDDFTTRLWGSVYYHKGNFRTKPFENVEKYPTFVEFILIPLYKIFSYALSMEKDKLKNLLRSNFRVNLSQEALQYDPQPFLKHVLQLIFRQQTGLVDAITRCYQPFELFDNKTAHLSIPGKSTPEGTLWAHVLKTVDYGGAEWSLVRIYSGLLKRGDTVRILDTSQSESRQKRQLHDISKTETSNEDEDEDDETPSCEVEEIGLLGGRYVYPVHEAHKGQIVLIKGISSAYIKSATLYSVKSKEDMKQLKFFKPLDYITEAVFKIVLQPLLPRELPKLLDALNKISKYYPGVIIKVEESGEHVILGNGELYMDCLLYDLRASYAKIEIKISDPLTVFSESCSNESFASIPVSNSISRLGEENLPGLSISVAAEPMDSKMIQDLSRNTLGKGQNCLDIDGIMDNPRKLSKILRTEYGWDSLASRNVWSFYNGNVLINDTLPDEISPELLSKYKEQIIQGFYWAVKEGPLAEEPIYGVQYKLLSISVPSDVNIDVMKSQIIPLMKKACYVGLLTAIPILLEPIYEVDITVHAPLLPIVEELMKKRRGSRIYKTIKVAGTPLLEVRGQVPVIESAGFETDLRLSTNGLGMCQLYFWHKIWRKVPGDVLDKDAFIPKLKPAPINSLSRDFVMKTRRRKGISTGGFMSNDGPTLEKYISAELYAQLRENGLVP

Snu114^72-1008 K146A = target: T2, Snu114^72-1008 K146A (yeast, UniProt P36048 72-1008, K146A)
T2 construct: Insoluble when produced alone; also called Snu114^K146A; source: insect cells, co-produced with Prp8^SBR; complex purified; not shown: Strep tag (from the vector pIDS-C-Strep), C-terminal, kept
T2 sequence (looked up): T1 sequence (looked up) with K75A, A119S

[1] = target: T3, Snu114^72-1008 (yeast Snu114 lacking the acidic N-terminal region) (yeast, UniProt P36048 72-1008)
T3 construct: synthetic gene; Co-purifies with endogenous GTP; source: insect cells (MultiBac baculovirus); co-produced with Prp8 constructs or alone; purified (StrepTactin, SEC); not shown: Strep tag (from the vector pIDS-C-Strep), C-terminal, kept
T3 sequence (looked up): T1 sequence (looked up) with A119S

Measured: binding result

B1: Prp8^SBR (Prp8 Snu114-binding region, Prp8 residues 315-555), recombinant (domain or fragment, yeast, UniProt P33334 315-555, looked up)
chain: STPLRDEVTDKNYYYLFDKKSFFNGKALNNAIPGGPKFEPLYPREEEEDYNEFNSIDRVIFRVPIRSEYKVAFPHLYNSRPRSVRIPWYNNPVSCIIQNDEEYDTPALFFDPSLNPIPHFIDNNSSLNVSNTKENGDFTLPEDFAPLLAEEEELILPNTKDAMSLYHSPFPFNRTKGKMVRAQDVALAKKWFLQHPDEEYPVKVKVSYQKLLKNYVLNELHPTLPTNHNKTKLLKSLKNTK
notes: Could not be produced alone; In the crystal residues 367-533 were modelled (416-419 and 435-449 without density); also called wt Prp8^SBR; Prp8^SBP; source: complex purified (StrepTactin, SEC); not shown: Strep tag (from the vector pFL-N-Strep), N-terminal, kept
binds: all assays above

Reference: PMC7192624, “A Snu114–GTP–Prp8 module forms a relay station for efficient splicing in yeast” (Nucleic Acids Research, 2020)
